Biological target: Concanavalin A (Con A) (UniProt P02866 164-281+30-148, internal_change)
Experiment: particle flow cytometry; 10 nM Con A; binding buffer, salt, pH and temperature not given in the material (hemagglutination: 30 min preincubation at RT)

B1: ConA-3-1n (ssDNA)
DNA: GATCCCAGTCCGAAGTAATCGTTGCATCTGCACGACTGGTGAGCTTGAGTGGCAGAAGAACTTGTGCAAACGGCTATAGG
modifications: none
  binding result: no binding

— PMC6929039
